# Residue numbers refer to the chain shown, from its start.
# T1: IRF4 DBD C99R (Homo sapiens, UniProt Q15306 20-132, C99R)
# T1 sequence: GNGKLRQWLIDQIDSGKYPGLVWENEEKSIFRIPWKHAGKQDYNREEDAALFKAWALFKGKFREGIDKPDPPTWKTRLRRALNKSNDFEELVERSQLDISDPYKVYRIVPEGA
# T2: IRF4 DBD K59R (Homo sapiens, UniProt Q15306 20-132, K59R)
# T2 sequence: T1 sequence with K40R, R80C
# T3: IRF4 DBD D117A (Homo sapiens, UniProt Q15306 20-132, D117A)
# T3 sequence: T1 sequence with R80C, D98A
# T4: IRF4 DBD T95K (Homo sapiens, UniProt Q15306 20-132, T95K)
# T4 sequence: T1 sequence with T76K, R80C
# T5: IRF4 DBD K123R (Homo sapiens, UniProt Q15306 20-132, K123R)
# T5 sequence: T1 sequence with R80C, K104R
# T6: IRF4 DBD D117H (Homo sapiens, UniProt Q15306 20-132, D117H)
# T6 sequence: T1 sequence with R80C, D98H
# T7: IRF4 DBD T95A (Homo sapiens, UniProt Q15306 20-132, T95A)
# T7 sequence: T1 sequence with T76A, R80C
# T8: IRF4 DBD T95R (Homo sapiens, UniProt Q15306 20-132, T95R)
# T8 sequence: T1 sequence with T76R, R80C
# T9: IRF4 DBD L70V (Homo sapiens, UniProt Q15306 20-132, L70V)
# T9 sequence: T1 sequence with L51V, R80C
# T10: IRF4 DBD S114R (Homo sapiens, UniProt Q15306 20-132, S114R)
# T10 sequence: T1 sequence with R80C, S95R
# Columns and labels:
# Test in all cases: SPR steady state; FP: PBS + 0.05% Tween20, 5 nM DNA, 1 h, room temperature; SPR: Biacore S200, SA chip, protein 0.1-4500 nM, running buffer not given in material; errors are SD
# Conditions in all cases: protein: recombinant; tags: N-terminal His8-linker-His8-TEV, cleaved; label: 3' biotin; hairpin, TTTT loop
# [1] = target: T1, IRF4 DBD C99R
# [2] = target: T2, IRF4 DBD K59R
# [3] = target: T3, IRF4 DBD D117A
# [4] = target: T4, IRF4 DBD T95K
# [5] = target: T5, IRF4 DBD K123R
# [6] = target: T6, IRF4 DBD D117H
# [7] = target: T7, IRF4 DBD T95A
# [8] = target: T8, IRF4 DBD T95R
# [9] = target: T9, IRF4 DBD L70V
# [10] = target: T10, IRF4 DBD S114R
binder,measurement,setting,value
CTTGGTTTCACTTCCTGCGTTTTCGCAGGAAGTGAAACCAAG (structured_DNA) [IRE hairpin (biotin)],Kd,[1],0.546 ± 0.174 µM
same,Kd,[2],0.275 ± 0.093 µM
same,Kd,[3],0.301 ± 0.087 µM
same,Kd,[4],0.594 ± 0.251 µM
same,Kd,[5],0.491 ± 0.048 µM
same,Kd,[6],0.247 ± 0.084 µM
same,Kd,[7],0.186 ± 0.082 µM
same,Kd,[8],0.449 ± 0.049 µM
same,Kd,[9],0.167 ± 0.082 µM
same,Kd,[10],0.213 ± 0.094 µM
